Here are results for one molecule from paper PMC6565675, “Cryo-electron microscopy structure of an archaeal ribonuclease P holoenzyme” (Nature Communications, 2019).

For experiment [1], the target named is T1, Methanocaldococcus jannaschii RNase P protein subunit Rpp21 (Methanocaldococcus jannaschii, UniProt Q58372 1-128).
T1 construct: Rpp21, protein subunit of RNase P of Methanocaldococcus jannaschii; also called MjaRpp21; source: E. coli, expressed as the MjaRpp29-MjaRpp21 heterodimer, purified by the same procedure as Pop5-Rpp30
T1 sequence: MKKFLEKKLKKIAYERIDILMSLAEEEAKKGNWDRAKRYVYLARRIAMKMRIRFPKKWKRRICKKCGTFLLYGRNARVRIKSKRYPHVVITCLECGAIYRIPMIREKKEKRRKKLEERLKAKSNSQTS
Briefly: cryo-EM structure; MjaRNase P holoenzyme reconstituted in vitro from RPR and the purified protein components, purified by SEC; alone (4.6 Å) and with E. coli tRNA^Tyr (4.3 Å); buffer exchanged on the grid to 40 mM Hepes, pH 7.5, 200 mM NaCl; C2 symmetry applied. The conditions noted are these: both partners purified.

Experiment [2] deals with T2, Methanocaldococcus jannaschii RNase P protein subunit Rpp30 (Methanocaldococcus jannaschii, UniProt Q58539 1-232).
T2 construct: Rpp30, protein subunit of RNase P of Methanocaldococcus jannaschii; full-length gene cloned; Purified as the (Pop5-Rpp30)2 heterotetramer; two copies in the dimeric holoenzyme; also called MjaRpp30; source: E. coli BL21 (DE3), co-expressed with MjaPop5 from pETDuet, purified (Ni-NTA, heating at 65 °C, ion-exchange, SEC)
T2 sequence (looked up): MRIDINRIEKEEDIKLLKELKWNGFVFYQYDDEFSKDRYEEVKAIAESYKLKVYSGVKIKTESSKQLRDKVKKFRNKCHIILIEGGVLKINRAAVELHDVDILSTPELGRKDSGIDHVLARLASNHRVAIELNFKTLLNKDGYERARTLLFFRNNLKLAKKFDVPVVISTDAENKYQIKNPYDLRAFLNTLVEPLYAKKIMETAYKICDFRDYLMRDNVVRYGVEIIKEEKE
Described as above. To be noted: both partners purified.

B1: Methanocaldococcus jannaschii RNase P protein subunit Rpp29 (natural protein)
chain: MITPHNILRHELIGLKVEIVEAKNKAMIGIKGKVVDETRNTLVIEKEDGREVVIPKDIAVFLFQLKGCKVKVDGRLLIGRPEERLKKKIKILYPY
notes: Rpp29, protein subunit of RNase P of Methanocaldococcus jannaschii; also called MjaRpp29; source: E. coli, expressed as the MjaRpp29-MjaRpp21 heterodimer, purified by the same procedure as Pop5-Rpp30
As to B1, the binding result in experiment [1] and in experiment [2] was “binds” in each case.
